# Experimental data: US10494417B2, “Peptide inhibitors of BCR-ABL oligomerization” (University of Utah Research Foundation, priority 2014, dated 2019)
# Entries after “also recorded” stand apart in the source; their conditions may differ.
# Tests used:
# [1] = test system: Ba/F3 cells expressing BCR-ABL1E255V; experiment: Proliferation of transfected Ba/F3 BCR-ABL1 E255V cells (MTS assay); assay type: cell-based, mouse; conditions: CCmut3 vs EV; for proliferation, in words: MTS assay at 72 and 96 h
# Method: (§1) Stable recombinant Ba/F3 cells transduced with wild type p210 BCR-ABL1 (Daley, G. Q., et al. (1991) Proc. Natl. Acad. Sci. U.S.A. 88, 11335-11338), the kinase domain mutants p210^T315I p210^[…], or the compound mutant p210^E255V/T315I were as previously described (La Rosee, P., et al. (2002) Cancer Res. 62, 7149-7153; O'Hare, T., et al. (2004) Blood 104, 2532-2539). These cells were cultured in RPMI with 10% FBS, 1% penicillin, streptomycin, glutamine, and 0.1% gentamycin (RPMI1640). Additionally 0.1% MycoZap™ (Lonza Bio, Basel, Switzerland) was added to prevent mycoplasma contamination. The non-transduced parental Ba/F3 cell line was grown in RPMI1640 supplemented with 20% WEHI-3B conditioned medium as a source of murine IL-3 (Dexter, T. M., et al. (1980) J. Exp. Med. 152, 1036-1047). Ba/F3 cells were transfected with plasmid DNA using the Amaxa nucleofection system (Lonza Bio), following the manufacturer's instructions. Cells were sorted on a BD FACSAria cytometer (BD Biosciences, San Jose, Calif.) for double-positive cells expressing mCherry and GFP then returned to RPMI1640 for subsequent experiments.
# (§2) Cell proliferation was assessed using the CellTiter 96® AQueous One Solution Cell Proliferation Assay (MTS assay, Promega) according to manufacturer instructions. Briefly, 5,000 viable cells were added to a single well in 96-well plate in 100 μL RPMI1640. Three independent samples were seeded in duplicate for each time point. […] In some experiments, cell proliferation was assessed using a Neubauer chamber and trypan blue dye exclusion.
# (§3) Stable Ba/F3 cells transduced with native (p210) BCR-ABL1, the kinase domain mutants BCR-ABL1T315I, BCR-ABL1E255V, or the compound mutant BCR-ABL1E255V/T315I were cultured. […]
# (§4) Cell proliferation was assessed using a […] viability assay (MTS assay) utilizing CellTiter 96® AQueous One Solution Cell Proliferation Assay (Promega) according to manufacturer instructions. […] Cell growth was assessed by MTS assay at 72 and 96 h. […] In patient sample experiments, cell proliferation was assessed by trypan blue exclusion.
# [2] = test system: CML CD34+ cells expressing BCR-ABL1T315I; experiment: Liquid culture of primary T315I CML cells; assay type: cell-based, human; conditions: CC^mut3 or increasing concentrations of ponatinib (FIG. 28C)
# Method: as §2
# [3] = test system: CD34+ cells from newly diagnosed CML patients; experiment: Proliferation of lentivirus-infected CD34+ cells from newly diagnosed CML patients; assay type: cell-based, human; conditions: for cell growth, in words: lentiviral CCmut3 compared with EV cells treated with 2.5 μM imatinib
# Method: Mononuclear cells (MNCs) were separated from the peripheral blood of patients with newly diagnosed or therapy-resistant CML with a documented T315I mutation, using Ficoll (Nycomed, Oslo, Norway). Isolation of the CD34^+ fraction was done on an autoMACS Pro (Miltenyi Biotech). CD34^+ progenitors were maintained at 1×10^6 cells/mL in RPMI1640 containing 20% FBS and 5 μL/mL StemSpan CC100 (Stem Cell Technologies, Vancouver, BC, Canada). Cells were infected with lentivirus at a multiplicity of infection (MOI) of 5 for each construct at 24 and 48 hours following harvest (fresh cells) or thaw (frozen cells). Cells were sorted on a BD FACSAria cytometer after 72 h, and GFP-positive cells were returned to culture medium for future experiments. All patients gave their informed consent in accordance with the Declaration of Helsinki, and all studies with human specimens were approved by The University of Utah Institutional Review Board (IRB).
# Cell proliferation was assessed using the CellTiter 96® AQueous One Solution Cell Proliferation Assay (MTS assay, Promega) according to manufacturer instructions. […] In some experiments, cell proliferation was assessed using a Neubauer chamber and trypan blue dye exclusion.
# Mononuclear cells (MNCs) from peripheral blood of patients with newly diagnosed or TKI-resistant CML were separated by Ficoll (Nycomed, Oslo, Norway), and the CD34+ fraction was isolated using an autoMACS Pro Separator (Miltenyi Biotech, San Diego, Calif., USA). Purity was determined to be >90% by flow cytometric analysis using a Guava 6HT flow cytometer (Millipore, Billerica, Mass., USA). […]
# 293FT cells (Life Technologies, Grand Island, N.Y., USA) were grown in DMEM with 10% FBS, 100 U/ml penicillin-streptomycin, 2 mM L-glutamine, 0.1 mM MEM-non-essential amino acids, and 1 mM sodium pyruvate (Life Technologies, Grand Island, N.Y., USA). […] Lentiviral titers were determined. […]
# Cell proliferation was assessed using a […] viability assay (MTS assay) utilizing CellTiter 96® AQueous One Solution Cell Proliferation Assay (Promega) according to manufacturer instructions. […]
# [4] = test system: Ba/F3 cells expressing native BCR-ABL1; experiment: Proliferation of transfected Ba/F3 cells with native p210 BCR-ABL1 (MTS assay); assay type: cell-based, mouse; conditions: CCmut3 vs EV; for reduction of proliferation: 96 h
# Method: as §1, §2, §3, §4
molecule,measurement,setting,value
"CCmut3: modified Bcr-Abl coiled-coil domain (residues 1-72) with mutations C38A, K39E, S41R, L45D, E48R, Q60E (protein) MVDPVGFAEAWKAQFPDSEPPRMELRSVGDIEQELERAEARIRRDEQRVNQERFRMIYLETLLAKEKKSYDR",reduction of proliferation,"[1]; 96 h, MTS assay",approximately 3 fold
same,"proliferation, in words",[1],"significant reduction of proliferative capacity; also recorded: lesser, yet significant difference was noted at the 72 h time point"
same,"proliferation, in words",[1]; listed as CC^mut3,significant reduction
same,effect in liquid culture,[2],no effect
same,"cell growth, in words",[3],significant reduction compared to inhibition by imatinib
same,"cell growth, in words",[3]; listed as CC^mut3,considerably more pronounced reduction of growth than observed with IM
same,reduction of cell proliferation/growth,"[3]; lentiviral CCmut3 vs EV, trypan blue exclusion",more than 2 fold
same,reduction of proliferation,[4],> 2 fold
same,reduction of proliferation,[4]; listed as CC^mut3,more than 2 fold
same,"proliferation, in words",[4],significantly reduced proliferation at 96 h
